US20150099282A1, “NADP-DEPENDENT ALANINE DEHYDROGENASE” (EVONIK INDUSTRIES AG, priority 2012, published 2015)

Columns and labels:
Type in all cases: biochemical, Bacillus subtilis
[1] = substrate: NC(=O)C1=CN([C@@H]2O[C@H](COP(=O)(O)OP(=O)(O)OC[C@H]3O[C@@H](n4cnc5c(N)ncnc54)[C@H](OP(=O)(O)O)[C@@H]3O)[C@@H](O)[C@H]2O)C=CC1; assay: KM and kcat for NADH/NADPH, reductive amination of pyruvate, wild type BasAlaDH; settings: other: reductive amination of pyruvate, 5 mM pyruvate, 200 mM ammonium acetate, 10-500 μM NADPH, 0.5 μM enzyme, Hepes/NaOH pH 8.3, 30.0 °C
Source text: (§1) The gene of the Bacillus subtilis AlaDH (SEQ ID No. 4) was amplified from the plasmid pUC18-AlaDH by polymerase chain reaction (PCR) using the oligodeoxy nucleotides AlaDHfw (SEQ ID No. 11) and AlaDHrv (SEQ ID No. 12), cleaved at the 3′ end using the restriction enzyme KpnI and ligated with the expression vector pASK-IBA35(+) (IBA GmbH, Göttingen) which had been cleaved with the restriction enzymes EheI and KpnI. The resulting expression plasmid pASK-IBA35(+)-AlaDH on which the BasAlaDH with an N-terminal His6-tag is encoded was verified by means of analytical restriction digestion and DNA sequencing. The plasmid which codes for the enzyme variant D196A/L197R was generated by site-directed mutagenesis using the oligodeoxy nucleotides AlaDH_D196A/L197Rfw (SEQ ID No. 13) and AlaDH_D196A/L197Rrv (SEQ ID No. 14), using the QuikChange method. The resulting expression plasmid pASK-IBA35(+)-AlaDH(D196A/L197R) was verified by means of DNA sequencing.
(§2) The expression plasmids for the BasAlaDH and its variant D196A/L197R were subsequently used for transforming E. coli BL21 (Sambrook et al. (2001) Molecular cloning: a laboratory manual, 3rd edition. Cold Spring Harbor Laboratory Press). Gene expression was induced in each case in LB medium (Sambrook et al. 2001) supplemented with 100 μg/ml ampicillin (2 L culture volume in a 5-l shake flask) at 30° C. in the exponential growth phase at OD550=0.5 by addition of 0.2 μg/ml anhydrotetracyclin (aTc; Acros, Geel, Belgium). After an induction time of 3 hours, the culture was harvested, and the cells were taken up in 40 mM Hepes/NaOH pH 7.5, 0.5 M NaCl and disrupted mechanically in a French press homogenizer (G. Heinemann, Schwäbisch Gmünd). The clear supernatant was applied to a Chelating Sepharose™ Fast Flow column loaded with Zn^2+ (bed volume 2.8 ml; GE Healthcare, Munich), and the enzymes with His6-tag fusion were eluted using a linear imidazole/HCl concentration gradient of from 0 to 500 mM in 40 mM Hepes/NaOH pH 7.5, 0.5 M NaCl. The elution fractions were concentrated by ultrafiltration and purified chromatographically by means of gel filtration on Superdex200 (GE Healthcare) in the presence of 25 mM Hepes/NaOH pH 8.3.
(§3) The Michaelis constant (KM) and the turnover number (kcat) of the two purified enzymes for the cosubstrates NADH and NADPH were determined with the aid of reductive amination of pyruvate, and the catalytic efficiency (kcat/KM) was calculated (Table 1).

[2] = substrate: NC(=O)C1=CN([C@@H]2O[C@H](COP(=O)(O)OP(=O)(O)OC[C@H]3O[C@@H](n4cnc5c(N)ncnc54)[C@H](O)[C@@H]3O)[C@@H](O)[C@H]2O)C=CC1; assay: as above; settings: other: reductive amination of pyruvate, 5 mM pyruvate, 200 mM ammonium acetate, 10-500 μM NADH, 0.5 μM enzyme, Hepes/NaOH pH 8.3, 30.0 °C
Source text: as §1, §2, §3

[3] = substrate: NC(=O)C1=CN([C@@H]2O[C@H](COP(=O)(O)OP(=O)(O)OC[C@H]3O[C@@H](n4cnc5c(N)ncnc54)[C@H](OP(=O)(O)O)[C@@H]3O)[C@@H](O)[C@H]2O)C=CC1; assay: KM and kcat for NADH/NADPH, reductive amination of pyruvate, BasAlaDH mutant D196A/L197R; settings: other: reductive amination of pyruvate, 5 mM pyruvate, 200 mM ammonium acetate, 10-500 μM NADPH, 0.5 μM enzyme, Hepes/NaOH pH 8.3, 30.0 °C
Source text: (§4) The conserved aspartate residue was the starting point for constructing the BasAlaDH enzyme variants D196A/L197R, with the SheAlaDH structure being used as template. […] As a result of the substitution L197R, the new cosubstrate specificity is favoured further as the result of the formation of salt bridges between the introduced arginine residue and the NADPH phosphate group.
as §1, §2, §3

[4] = substrate: NC(=O)C1=CN([C@@H]2O[C@H](COP(=O)(O)OP(=O)(O)OC[C@H]3O[C@@H](n4cnc5c(N)ncnc54)[C@H](O)[C@@H]3O)[C@@H](O)[C@H]2O)C=CC1; assay: as above; settings: other: reductive amination of pyruvate, 5 mM pyruvate, 200 mM ammonium acetate, 10-500 μM NADH, 0.5 μM enzyme, Hepes/NaOH pH 8.3, 30.0 °C
Source text: as §4, §1, §2, §3

Protein | Km [1] [µM] | kcat [1] [s⁻¹] | kcat/Km [1] [μM^−1/min^−1] | Km [2] [µM] | kcat [2] [s⁻¹] | kcat/Km [2] [μM^−1/min^−1] | Km [3] [µM] | kcat [3] [s⁻¹] | kcat/Km [3] [μM^−1/min^−1] | Km [4] [µM] | kcat [4] [s⁻¹] | kcat/Km [4] [μM^−1/min^−1]
Bacillus subtilis alanine dehydrogenase (BasAlaDH), wild type (N-terminal His6-tag) (Bacillus subtilis subsp. subtilis str. 168) (protein) MIIGVPKEIKNNENRVALTPGGVSQLISNGHRVLVETGAGLGSGFENEAYESAGAEIIADPKQVWDAEMVMKVKEPLPEEYVYFRKGLVLFTYLHLAAEPELAQALKDKGVTAIAYETVSEGRTLPLLTPMSEVAGRMAAQIGAQFLEKPKGGKGILLAGVPGVSRGKVTIIGGGVVGTNAAKMAVGLGADVTIIDLNADRLRQLDDIFGHQIKTLISNPVNIADAVAEADLLICAVLIPGAKAPTLVTEEMVKQMKPGSVIVDVAIDQGGIVETVDHITTHDQPTYEKHGVVHYAVANMPGAVPRTSTIALTNVTVPYALQIANKGAVKALADNTALRAGLNTANGHVTYEAVARDLGYEYVPAEKALQDESSVAGA | 448 ± 135 | 11.1 ± 1.9 | 1.5 | 14 ± 2 | 14 ± 0.35 | 59.9 |  |  |  |  |  | 
Bacillus subtilis alanine dehydrogenase (BasAlaDH) variant D196A/L197R (Asp196Ala, Leu197Arg), SEQ ID No. 1 (with His-Tag: SEQ ID No. 22) (Bacillus subtilis … (protein) MASRGSHHHHHHGAIIGVPKEIKNNENRVALTPGGVSQLISNGHRVLVETGAGLGSGFENEAYESAGAEIIADPKQVWDAEMVMKVKEPLPEEYVYFRKGLVLFTYLHLAAEPELAQALKDKGVTAIAYETVSEGRTLPLLTPMSEVAGRMAAQIGAQFLEKPKGGKGILLAGVPGVSRGKVTIIGGGVVGTNAAKMAVGLGADVTIIARNADRLRQLDDIFGHQIKTLISNPVNIADAVAEADLLICAVLIPGAKAPTLVTEEMVKQMKPGSVIVDVAIDQGGIVETVDHITTHDQPTYEKHGVVHYAVANMPGAVPRTSTIALTNVTVPYALQIANKGAVKALADNTALRAGLNTANGHVTYEAVARDLGYEYVPAEKALQDESSVAGA |  |  |  |  |  |  | 32 ± 3 | 28.83 ± 0.65 | 54.1 | 887 ± 360 | 44.48 ± 12 | 3.0
